This is an account of results in the nanobody polyreactivity screen of Harvey et al. (2022).

The data set can be described thus: yeast display, Sf9 membrane polyspecificity reagent, FACS + sequencing; frameworks hold sequencing errors. The procedure, abridged:
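Nanobodies came from a synthetic yeast display library in Saccharomyces cerevisiae BJ5465, induced with galactose for 36–48 hours and stained for 1 hour at 4 °C with 10% biotinylated, detergent-solubilized Sf9 membrane reagent. Cells were enriched on streptavidin microbeads and then FACS-sorted, with low and high (top ~1%) gates set on anti-HA fluorescence for expression and streptavidin fluorescence for reagent binding. Each polyreactivity label reflects the gate a clone came from. Genes were amplified by colony PCR, sequenced by MiSeq 2 × 250 and filtered by CDR length.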
Consider “QVQLVESGGGLVQAGGSLRLSCAASGSTFAANAMGWYRQAPGKERELVATISYRGGSTYYADSVKGRFTISRDNAKNTVYLQMNSLKPEDTAVYYCAAKLYYAFYSRYNYWGQGTQVTVSS”, for which the “polyreactivity (PSR sort gate)” value is reported as “high polyreactivity”. In the case of “QVQLVESGGGLVQAGGSLRLSCAASGSTFAAYAMGWYRPAPGTERELVAAISASGGSTYYADSVKGRFTISRDNEKNTVYLQMNSLKPEDTAVYYCAARVFRGLGEYYWGQGTQVTVSS”, the “polyreactivity (PSR sort gate)” value is recorded as “high polyreactivity”. In the case of “QVQLVESGGGLVQAGGSLRLSCAASGSTFADYAMGWYRQAPGKERELVAAITSSGGDTYYADSVKGRFTISRDNAKNTVYLQMNSLKPEDTAVYYCAVVDTLYDSKYDYWGQGTQVTVSS” it was “low polyreactivity”. Then “QVQLVESGGGLVQAGGSLRLSCAASGSTFAEYAMGWYRQAPGKERELVATITSSGGGTYYADSVKGRFTISRDNAKNTVYLQMNSLKPEDTAVYYCGQGTQVTVSS”, with “low polyreactivity”; and “QVQLVESGGGLVQAGGSLRLSCAASGSTFAFNAMGWYRPAPGKERELVASISGSGSSTYYADSVKGRFTISRDNAKNTVYLQMNSLKPEDTAVYYCAARVGARVSPPRRHGRFNYWGQGTQVTVSS”, with “high polyreactivity”; and “QVQLVESGGGLVQAGGSLRLSCAASGSTFAFNAMGWYRQAPGKERELVAGITRSGGRTYFADSVKGRFTISRDYAKNTVYLQMNSLKPEDTAVYYCAARRSGSKSGLFDYWGQGTQVTVSS”, with “low polyreactivity”. Then “QVQLVESGGGLVQAGGSLRLSCAASGSTFAFYAMGWYRQAAGKERELVAAITWDGGTTYYADSVKGRFTLSRDNAKNTVYLQMNSLKPEDTAVYYCASDYAWFSIYDNVPSAPGYDYWGQGTQVTVSS”, with “low polyreactivity”; and “QVQLVESGGGLVQAGGSLRLSCAASGSTFAGFTMRWYRQAPGKERELVAAITTRGGRTYYADSVKGRFTISRDNAKNTVYLQMNSLKPEDTAVYYCAAVSRYYAELMYYWGQGTQVTVSS”, with “high polyreactivity”. Take “QVQLVESGGGLVQAGGSLRLSCAASGSTFAGNAMGWYRQAPGKERELVAAISSSGAGTYYADSVKGRFTISRDNAKNTVYLQMNSLKPEVTAVYYCNVGSRALRRRVRSVSFDYWGQGTQVTVSS”: the “polyreactivity (PSR sort gate)” value was “low polyreactivity”.

“QVQLVESGGGLVQAGGSLRLSCAASGSTFAGNAMGWYRQAPGKERELVAAITSGTGTHYADSVKGRFSISRDNAKNTVYLQMNSLKPEDTAVYYCAAEVWSWAGIWGYEYWGQGTQVTVSS”: the “polyreactivity (PSR sort gate)” value is on record as “low polyreactivity”. “QVQLVESGGGLVQAGGSLRLSCAASGSTFAGNGMGWSRQAPGKERELVAGIDVTGGSTYYADSVKGRFTISRDNAKNTVYLQMNSLKPEDTAVYYCNARYVYHSSFAGFDYWGQGTQVTVSS”: the “polyreactivity (PSR sort gate)” value is “low polyreactivity”.

Regarding “QVQLVESGGGLVQAGGSLRLSCAASGSTFAGNGMGWYRQAPGKERELVAGIDVTGGSTYYADSVKGRFTISRDNAKNTVYLQMNRLKPEDTAVYYCNARYVYHSSFAGFDYWGQGTQVTVSS”, the “polyreactivity (PSR sort gate)” value was “low polyreactivity”.

For the sequence “QVQLVESGGGLVQAGGSLRLSCAASGSTFAGNGMGWYRQAPGKERELVAGIDVTGGSTYYADSVKGRFTISRDNAKNTVYLQMNSLKPEDTAVYYCNARYVYHSSFAGFDYWGQGTQVTVSS”, the “polyreactivity (PSR sort gate)” value is on record as “low polyreactivity”. “QVQLVESGGGLVQAGGSLRLSCAASGSTFAGYAMGWYRQAPGKERELVAAISYSGGTTYYADSVKGRFTISRDNAKNTVYLQMNSLKPEDTAVFYCAARKKYKTPSYDMYYWGQGTQVTVSS”: the “polyreactivity (PSR sort gate)” value was “high polyreactivity”. In the case of “QVQLVESGGGLVQAGGSLRLSCAASGSTFAGYVMGWYRQAPGKERELVADISGRGGNTYYADSVKGRFTISRDNAKNTVYLQMNRLKPEDTAVYYCASILSRRYGYWGQGTQVTVSS” it was “high polyreactivity”; in that of “QVQLVESGGGLVQAGGSLRLSCAASGSTFAINAMGWYRQAPGKERELVAAISSSGSTNYADSVKGRFTISRDNAKNTVYLQMNSLKPEVTAVYYCAADRVWGTPQAYVPSQFDYWGQGTQVTVSS”, “low polyreactivity”.

“QVQLVESGGGLVQAGGSLRLSCAASGSTFAINTMGSYREAPGKERELVAAISWSGGSTYYADSVKGRFTISRDNAKNTVYLQMNSLKPEDTAVYYCAARVPGWYVPGYNVYYWGQGTQVTVSS”: the “polyreactivity (PSR sort gate)” value is reported as “high polyreactivity”. In the case of “QVQLVESGGGLVQAGGSLRLSCAASGSTFAIYAMGWYRPAPGKERELVASISGGSTNYADSVKGRFTISRDNAKNTVDLQMNSLKPEDTADYYCAARGALHHWYRYDYWGQGTQVTVSS”, the “polyreactivity (PSR sort gate)” value was “low polyreactivity”.

“QVQLVESGGGLVQAGGSLRLSCAASGSTFAIYAMGWYRQAPGKERELVASISGGSTNYADSVKGRFTISRDNAKNTVYLQMNSLKPEDTAVYYCAARGALHHWYRYDYWGQVTQVTVSS”: the “polyreactivity (PSR sort gate)” value is given as “low polyreactivity”. Then “QVQLVESGGGLVQAGGSLRLSCAASGSTFAPNAMGWYRQAPGKERELVAAIRTNTGSTYYADSVKGRFTISRDNAKNTVYLQMNSLKPEDTAVYYCAAVFSGFYYAYDYWGQGTQVTVSS”, with “high polyreactivity”; and “QVQLVESGGGLVQAGGSLRLSCAASGSTFAPNTMGWYRQAPGKERELVARITSSDGSTTYADSVKGRFTISRDNAKNTVYLQMNSLKPEDTAVYYCAADYGRRWGYDYWGQGTQVTVSS”, with “low polyreactivity”; and “QVQLVESGGGLVQAGGSLRLSCAASGSTFAPYAMGWYRQAPGKERELVAAIRSSGGSTYYADSVKGRFTISRDNAKNTVYLQMNSLKPEDTAVYYCSDDYYTSADYVDYYYWGQGTQVTVSS”, with “low polyreactivity”. “QVQLVESGGGLVQAGGSLRLSCAASGSTFAPYAMGWYRQAPGKERELVATISFRGGSTYYADSVKGRFTISRDNEMNTVFLEMNNLKPEDTAVYYCNAQRRYPYGYGYWGQGTQVTVSS”: the “polyreactivity (PSR sort gate)” value is listed as “high polyreactivity”. Regarding “QVQLVESGGGLVQAGGSLRLSCAASGSTFAQNAMGWYRQEPGKERELVAAISRRGGSTYYADSVKGRFTISRDNAKNTVYLQMISLKPEDTAVYYCAADQPVRQLHRDDYWGQGTQVTVSS”, the “polyreactivity (PSR sort gate)” value is given as “low polyreactivity”.

As for “QVQLVESGGGLVQAGGSLRLSCAASGSTFARNAMGWYRQAPGKERELVAAITTRGSSTYYADSVKGRFTISRDNAKNTVYLQMNSLKPEDTAVYYCAARTQAPLGKYGYWGQGTQVTVSS”, the “polyreactivity (PSR sort gate)” value was “high polyreactivity”. Consider “QVQLVESGGGLVQAGGSLRLSCAASGSTFARNTMGWSRQAPGKEREIVAAIDWSGGNTYYADSVKGRFTISRDNAKNTVYLQMNSLKPEDTAVYNCYDYWGQGTQVTVSS”, for which the “polyreactivity (PSR sort gate)” value was “low polyreactivity”. Then “QVQLVESGGGLVQAGGSLRLSCAASGSTFARYAMGWYRQAPGKDREFVAVSTSGGSTYYADSVNGRFTISRDNAKNPVYLQMNSLKPEDTAVYYCAAQSYFVFGSYRRYYGYDYWGQGTQVTVSW”, with “high polyreactivity”; and “QVQLVESGGGLVQAGGSLRLSCAASGSTFARYAMGWYRQAPGKERELVAAISANGGITYYADSVKGRFTISRDNAKNTVYLQMNSLKPEDTAVYYCAARKSAYRFYRMNYWGQGTQVTVSS”, with “high polyreactivity”.

For the sequence “QVQLVESGGGLVQAGGSLRLSCAASGSTFARYAMGWYRQAPGKERELVAAISRRGGSTYYADSVKGRFTISRDNAKNTVYLQINSLKPEDTAVYYCAARYGIITSFEYDYWGQGTQVTVSS”, the “polyreactivity (PSR sort gate)” value is given as “high polyreactivity”. Then “QVQLVESGGGLVQAGGSLRLSCAASGSTFARYAMGWYRQAPGKERELVAAITWGGGGTYADSVKGRFTISRDNAKNTVSLQMNSLKPEDTAVYYCNAYGPLILFIGFRLDYWGQGTQVTVSS”, with “low polyreactivity”.

On to “QVQLVESGGGLVQAGGSLRLSCAASGSTFARYAMVWYRQAPGKERELVAVIRSGGSTNYADSVKGRFTISRDNAKNTVYLQMNSLKPEDTAGAADQWTIHRWATYGYWGQGTQVTVSS”, for which the “polyreactivity (PSR sort gate)” value was “low polyreactivity”. With “QVQLVESGGGLVQAGGSLRLSCAASGSTFARYVMGWYRQAPGKDRELVAAIRSTGGRTYYADSVKGRFTISRDNAKNTVYLQMNSLKPEDTAVYYCAAAFGQYSRKRFDYWGQGTQVTVSS”, the “polyreactivity (PSR sort gate)” value is reported as “high polyreactivity”. For “QVQLVESGGGLVQAGGSLRLSCAASGSTFASNAMGWYRQAPGKERELVAAISRSGGTTYYADSVKGRFTISRDNAKNTVYLQMNSLKPEDTAVYYCAVYGYRFYKAVKYYYWGQGTQVTVSS”, the “polyreactivity (PSR sort gate)” value is on record as “high polyreactivity”. Then “QVQLVESGGGLVQAGGSLRLSCAASGSTFASNAMGWYRQAPGKERELVATINGDGSTNYADSVKGRFTISRDNAKNTVYLQMNSLKPEDTAVYYCNARYDYYGFWYQPYTLEVDYWGQGTQVTVSS”, with “low polyreactivity”; and “QVQLVESGGGLVQAGGSLRLSCAASGSTFASNVMGWYRQAPGKERELVAAISRSGGNTYYADSVKGRFTISRDIAKNTVYLQMNSLKPEDTAVYYCAKYPFTRISYDYWGQGTLVTVSS”, with “high polyreactivity”; and “QVQLVESGGGLVQAGGSLRLSCAASGSTFASNVMGWYRQAPGKERELVAAITRGDRTHYAHSVKGRFTISRDNAKNTVYLQMNSLKPEDPAVYYCAKVTTLGRSRDYWGQGTQVTVSS”, with “low polyreactivity”. Then “QVQLVESGGGLVQAGGSLRLSCAASGSTFASYAMGWYRQAPGKETELVASITRRGCSTDYADSVKGRFTISRDNAKNTVDFPMNLLKPEDTAVYYCATYSYPERTGGHRTHYYWGQGTQVTVSS”, with “high polyreactivity”. Then “QVQLVESGGGLVQAGGSLRLSCAASGSTFASYAMGWYRQAPGKQRELVAAITDSGGSTYYADSVKGRFTISRDNAKNTVYLQMNSLKPEDTAVSYCAAYGRYFSYHDYDYWGQGTQVTVSS”, with “low polyreactivity”; and “QVQLVESGGGLVQAGGSLRLSCAASGSTFASYVMGGYSQAPGKERELVAGIDVRGVSTYYADSVKGRFTISRDNAKNTVYLQMNSLKPEDTAVYYCAIDNRYEMDYWGQGTQVTVSS”, with “low polyreactivity”; and “QVQLVESGGGLVQAGGSLRLSCAASGSTFAVYAMGWYRQAPGKERELVAVISRGANTNYADSVKGRFTISRDNAKNTVYLQMNSLKPEDTAVYYCAAVDGYDSHDTGEYYYWGQGTQVSVSS”, with “low polyreactivity”. Consider “QVQLVESGGGLVQAGGSLRLSCAASGSTFAVYTMGWYRQAPGKERELSTSYADSVKGRFTISRDNAKNTVYLQMNSLKPEDTAVYYCAADYDAWYDDIEYDYWGQGTQVTVSS”, for which the “polyreactivity (PSR sort gate)” value was “low polyreactivity”.
